Laboratory results taken from PMC9482650, “Quantitative fragmentomics allow affinity mapping of interactomes” (Nature Communications, 2022).

T1: RADIL, Q96JH8
T1 sequence (Q96JH8 971-1071, limits assumed, looked up): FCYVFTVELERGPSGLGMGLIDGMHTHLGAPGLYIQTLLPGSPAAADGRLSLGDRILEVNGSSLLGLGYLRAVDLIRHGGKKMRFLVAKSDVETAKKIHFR

T2: APBA3_1, O96018
T2 sequence (O96018 389-490, limits assumed, looked up): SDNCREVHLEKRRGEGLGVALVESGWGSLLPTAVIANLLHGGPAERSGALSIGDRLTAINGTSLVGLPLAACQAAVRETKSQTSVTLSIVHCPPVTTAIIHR

T3: ARHGAP21, Q5T5U3
T3 sequence (Q5T5U3 45-169, limits assumed, looked up): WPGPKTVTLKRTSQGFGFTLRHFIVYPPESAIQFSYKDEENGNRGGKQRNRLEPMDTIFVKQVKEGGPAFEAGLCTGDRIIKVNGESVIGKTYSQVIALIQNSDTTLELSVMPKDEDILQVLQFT

T4: DVL3, Q92997
T4 sequence (Q92997 244-331, limits assumed, looked up): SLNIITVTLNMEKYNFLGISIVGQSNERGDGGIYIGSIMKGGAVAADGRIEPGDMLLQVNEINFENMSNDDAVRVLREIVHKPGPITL

T5: CARD11, Q9BXL7
T5 sequence (Q9BXL7 662-765, limits assumed, looked up): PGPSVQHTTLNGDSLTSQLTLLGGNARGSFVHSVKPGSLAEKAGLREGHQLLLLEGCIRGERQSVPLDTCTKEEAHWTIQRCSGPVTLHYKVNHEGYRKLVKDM

T6: NHERF3_4, Q5T2W1
T6 sequence (Q5T2W1 373-468, limits assumed, looked up): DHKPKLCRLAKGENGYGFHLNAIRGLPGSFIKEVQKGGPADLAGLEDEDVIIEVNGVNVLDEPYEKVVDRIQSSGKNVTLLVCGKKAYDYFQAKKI

T7: MPDZ_10, O75970
T7 sequence (O75970 1624-1722, limits assumed, looked up): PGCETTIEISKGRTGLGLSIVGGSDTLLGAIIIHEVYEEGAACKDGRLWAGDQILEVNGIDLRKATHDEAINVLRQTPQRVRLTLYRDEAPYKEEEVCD

T8: MPP7, Q5T2T1
T8 sequence (Q5T2T1 134-230, limits assumed, looked up): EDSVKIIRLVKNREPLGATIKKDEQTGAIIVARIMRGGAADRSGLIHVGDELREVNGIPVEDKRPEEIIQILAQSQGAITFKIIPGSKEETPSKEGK


Target: ARHGEF12, Q9NZN5-2
Sequence (Q9NZN5 other isoform, or with tags, fused parts or gaps): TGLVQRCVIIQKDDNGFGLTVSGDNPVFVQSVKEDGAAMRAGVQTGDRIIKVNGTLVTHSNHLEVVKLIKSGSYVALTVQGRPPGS
Experiment: holdup assay
Set-up: key: below the threshold = too weak to quantify, mostly under pKd 3.1 to 4
Conditions: plain residues with an end cap or a label only (N-terminal biotin on a linker: ado-ado)

Binder | pKd
HLRQQGSVEV [EPHB6, O15197] | 3.67
FTLPAESSEI [PLEKHG7, Q6ZR37] | 4.18

Target: T1, RADIL, Q96JH8
Experiment: holdup assay
Set-up: key: below the threshold = too weak to quantify, mostly under pKd 3.1 to 4
Conditions: plain residues with an end cap or a label only (N-terminal biotin on a linker: ado-ado)

Binder | pKd
HLRQQGSVEV [EPHB6, O15197] | 3.74
FTLPAESSEI [PLEKHG7, Q6ZR37] | below the threshold

Target: SCRIB_3, Q14160
Sequence (Q14160 999-1103): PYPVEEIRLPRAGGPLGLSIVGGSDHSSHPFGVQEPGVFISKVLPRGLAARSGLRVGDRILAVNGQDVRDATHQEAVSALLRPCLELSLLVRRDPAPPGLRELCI
Experiment: holdup assay
Set-up: key: below the threshold = too weak to quantify, mostly under pKd 3.1 to 4
Conditions: plain residues with an end cap or a label only (N-terminal biotin on a linker: ado-ado)

Binder | pKd
HLRQQGSVEV [EPHB6, O15197] | below the threshold
FTLPAESSEI [PLEKHG7, Q6ZR37] | 3.86

Target: LNX1_2, Q8TBB1
Sequence (Q8TBB1 371-470): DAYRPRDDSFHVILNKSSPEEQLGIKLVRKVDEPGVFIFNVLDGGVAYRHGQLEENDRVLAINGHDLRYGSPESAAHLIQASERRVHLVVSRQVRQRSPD
Experiment: holdup assay
Set-up: key: below the threshold = too weak to quantify, mostly under pKd 3.1 to 4
Conditions: plain residues with an end cap or a label only (N-terminal biotin on a linker: ado-ado)

Binder | pKd
HLRQQGSVEV [EPHB6, O15197] | 4.1
FTLPAESSEI [PLEKHG7, Q6ZR37] | below the threshold

Target: T2, APBA3_1, O96018
Experiment: holdup assay
Set-up: key: below the threshold = too weak to quantify, mostly under pKd 3.1 to 4
Conditions: plain residues with an end cap or a label only (N-terminal biotin on a linker: ado-ado)

Binder | pKd
HLRQQGSVEV [EPHB6, O15197] | below the threshold
FTLPAESSEI [PLEKHG7, Q6ZR37] | below the threshold

Target: LDB3, O75112
Sequence (O75112 1-94): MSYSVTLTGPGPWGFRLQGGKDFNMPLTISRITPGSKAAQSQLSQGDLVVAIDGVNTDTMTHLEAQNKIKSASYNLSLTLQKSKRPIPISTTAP
Experiment: holdup assay
Set-up: key: below the threshold = too weak to quantify, mostly under pKd 3.1 to 4
Conditions: plain residues with an end cap or a label only (N-terminal biotin on a linker: ado-ado)

Binder | pKd
HLRQQGSVEV [EPHB6, O15197] | below the threshold
FTLPAESSEI [PLEKHG7, Q6ZR37] | below the threshold

Target: DLG4_1, P78352
Sequence (P78352 62-152): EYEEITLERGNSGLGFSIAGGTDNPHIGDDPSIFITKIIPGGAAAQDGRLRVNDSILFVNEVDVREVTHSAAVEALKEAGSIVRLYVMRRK
Experiment: holdup assay
Set-up: key: below the threshold = too weak to quantify, mostly under pKd 3.1 to 4
Conditions: plain residues with an end cap or a label only (N-terminal biotin on a linker: ado-ado)

Binder | pKd
HLRQQGSVEV [EPHB6, O15197] | 3.5
FTLPAESSEI [PLEKHG7, Q6ZR37] | below the threshold

Target: PTPN3, P26045
Sequence (P26045 505-587): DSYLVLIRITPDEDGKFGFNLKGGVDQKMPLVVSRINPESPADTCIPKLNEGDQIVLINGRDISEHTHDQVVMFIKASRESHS
Experiment: holdup assay
Set-up: key: below the threshold = too weak to quantify, mostly under pKd 3.1 to 4
Conditions: plain residues with an end cap or a label only (N-terminal biotin on a linker: ado-ado)

Binder | pKd
HLRQQGSVEV [EPHB6, O15197] | below the threshold
FTLPAESSEI [PLEKHG7, Q6ZR37] | 3.55

Target: T3, ARHGAP21, Q5T5U3
Experiment: holdup assay
Set-up: key: below the threshold = too weak to quantify, mostly under pKd 3.1 to 4
Conditions: plain residues with an end cap or a label only (N-terminal biotin on a linker: ado-ado)

Binder | pKd
HLRQQGSVEV [EPHB6, O15197] | 4.16
FTLPAESSEI [PLEKHG7, Q6ZR37] | below the threshold

Target: Inadl_6, Q8NI35
Sequence (Q8NI35 1058-1167): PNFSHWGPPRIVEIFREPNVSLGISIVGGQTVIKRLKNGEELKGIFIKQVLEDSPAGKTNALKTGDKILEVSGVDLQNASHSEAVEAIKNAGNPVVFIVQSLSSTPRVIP
Experiment: holdup assay
Set-up: key: below the threshold = too weak to quantify, mostly under pKd 3.1 to 4
Conditions: plain residues with an end cap or a label only (N-terminal biotin on a linker: ado-ado)

Binder | pKd
HLRQQGSVEV [EPHB6, O15197] | below the threshold
FTLPAESSEI [PLEKHG7, Q6ZR37] | below the threshold

Target: MAGI3_2, Q5TCQ9
Sequence (Q5TCQ9 398-503): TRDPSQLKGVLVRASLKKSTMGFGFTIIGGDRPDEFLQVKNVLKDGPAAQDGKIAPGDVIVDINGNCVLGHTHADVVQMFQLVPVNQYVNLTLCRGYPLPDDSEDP
Experiment: holdup assay
Set-up: key: below the threshold = too weak to quantify, mostly under pKd 3.1 to 4
Conditions: plain residues with an end cap or a label only (N-terminal biotin on a linker: ado-ado)

Binder | pKd
HLRQQGSVEV [EPHB6, O15197] | below the threshold
FTLPAESSEI [PLEKHG7, Q6ZR37] | below the threshold

Target: PDZRN4_1, Q6ZMN7
Sequence (Q6ZMN7 213-318): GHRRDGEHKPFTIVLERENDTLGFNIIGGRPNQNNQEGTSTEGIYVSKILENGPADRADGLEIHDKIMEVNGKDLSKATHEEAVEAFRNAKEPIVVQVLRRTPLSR
Experiment: holdup assay
Set-up: key: below the threshold = too weak to quantify, mostly under pKd 3.1 to 4
Conditions: plain residues with an end cap or a label only (N-terminal biotin on a linker: ado-ado)

Binder | pKd
HLRQQGSVEV [EPHB6, O15197] | below the threshold
FTLPAESSEI [PLEKHG7, Q6ZR37] | below the threshold

Target: T4, DVL3, Q92997
Experiment: holdup assay
Set-up: key: below the threshold = too weak to quantify, mostly under pKd 3.1 to 4
Conditions: plain residues with an end cap or a label only (N-terminal biotin on a linker: ado-ado)

Binder | pKd
HLRQQGSVEV [EPHB6, O15197] | below the threshold
FTLPAESSEI [PLEKHG7, Q6ZR37] | below the threshold

Target: DLG2_2, Q15700
Sequence (Q15700 189-283): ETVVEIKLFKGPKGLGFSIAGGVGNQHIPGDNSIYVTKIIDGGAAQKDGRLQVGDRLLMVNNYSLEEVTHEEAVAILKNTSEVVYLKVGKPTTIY
Experiment: holdup assay
Set-up: key: below the threshold = too weak to quantify, mostly under pKd 3.1 to 4
Conditions: plain residues with an end cap or a label only (N-terminal biotin on a linker: ado-ado)

Binder | pKd
HLRQQGSVEV [EPHB6, O15197] | below the threshold
FTLPAESSEI [PLEKHG7, Q6ZR37] | below the threshold

Target: T5, CARD11, Q9BXL7
Experiment: holdup assay
Set-up: key: below the threshold = too weak to quantify, mostly under pKd 3.1 to 4
Conditions: plain residues with an end cap or a label only (N-terminal biotin on a linker: ado-ado)

Binder | pKd
HLRQQGSVEV [EPHB6, O15197] | below the threshold
FTLPAESSEI [PLEKHG7, Q6ZR37] | below the threshold

Target: Inadl_9, Q8NI35
Sequence (Q8NI35 1530-1615): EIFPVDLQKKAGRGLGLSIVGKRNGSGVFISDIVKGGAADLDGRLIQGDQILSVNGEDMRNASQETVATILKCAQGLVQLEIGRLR
Experiment: holdup assay
Set-up: key: below the threshold = too weak to quantify, mostly under pKd 3.1 to 4
Conditions: plain residues with an end cap or a label only (N-terminal biotin on a linker: ado-ado)

Binder | pKd
HLRQQGSVEV [EPHB6, O15197] | 4.03
FTLPAESSEI [PLEKHG7, Q6ZR37] | below the threshold

Target: MAGI2_4, Q86UL8
Sequence (Q86UL8 772-865): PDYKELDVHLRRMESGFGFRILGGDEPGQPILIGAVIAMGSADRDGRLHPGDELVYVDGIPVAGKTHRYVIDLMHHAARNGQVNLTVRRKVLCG
Experiment: holdup assay
Set-up: key: below the threshold = too weak to quantify, mostly under pKd 3.1 to 4
Conditions: plain residues with an end cap or a label only (N-terminal biotin on a linker: ado-ado)

Binder | pKd
HLRQQGSVEV [EPHB6, O15197] | below the threshold
FTLPAESSEI [PLEKHG7, Q6ZR37] | below the threshold

Target: LNX1_1, Q8TBB1
Sequence (Q8TBB1 261-371): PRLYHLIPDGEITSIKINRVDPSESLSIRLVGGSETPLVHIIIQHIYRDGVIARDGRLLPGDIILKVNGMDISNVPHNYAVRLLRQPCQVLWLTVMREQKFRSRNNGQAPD
Experiment: holdup assay
Set-up: key: below the threshold = too weak to quantify, mostly under pKd 3.1 to 4
Conditions: plain residues with an end cap or a label only (N-terminal biotin on a linker: ado-ado)

Binder | pKd
HLRQQGSVEV [EPHB6, O15197] | below the threshold
FTLPAESSEI [PLEKHG7, Q6ZR37] | below the threshold

Target: T6, NHERF3_4, Q5T2W1
Experiment: holdup assay
Set-up: key: below the threshold = too weak to quantify, mostly under pKd 3.1 to 4
Conditions: plain residues with an end cap or a label only (N-terminal biotin on a linker: ado-ado)

Binder | pKd
HLRQQGSVEV [EPHB6, O15197] | below the threshold
FTLPAESSEI [PLEKHG7, Q6ZR37] | below the threshold

Target: GORASP1, Q9BQQ3
Sequence (Q9BQQ3 1-208): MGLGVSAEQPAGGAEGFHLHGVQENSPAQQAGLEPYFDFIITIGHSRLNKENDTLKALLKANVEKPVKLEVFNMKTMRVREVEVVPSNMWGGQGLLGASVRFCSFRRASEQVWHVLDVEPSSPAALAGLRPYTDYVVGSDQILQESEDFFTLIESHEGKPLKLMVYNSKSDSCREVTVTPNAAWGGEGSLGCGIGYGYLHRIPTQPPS
Experiment: holdup assay
Set-up: key: below the threshold = too weak to quantify, mostly under pKd 3.1 to 4
Conditions: plain residues with an end cap or a label only (N-terminal biotin on a linker: ado-ado)

Binder | pKd
HLRQQGSVEV [EPHB6, O15197] | below the threshold
FTLPAESSEI [PLEKHG7, Q6ZR37] | below the threshold

Target: MAGI2_3, Q86UL8
Sequence (Q86UL8 600-682): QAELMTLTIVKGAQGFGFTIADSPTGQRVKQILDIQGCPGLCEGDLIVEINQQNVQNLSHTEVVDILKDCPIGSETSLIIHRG
Experiment: holdup assay
Set-up: key: below the threshold = too weak to quantify, mostly under pKd 3.1 to 4
Conditions: plain residues with an end cap or a label only (N-terminal biotin on a linker: ado-ado)

Binder | pKd
HLRQQGSVEV [EPHB6, O15197] | below the threshold
FTLPAESSEI [PLEKHG7, Q6ZR37] | below the threshold

Target: T7, MPDZ_10, O75970
Experiment: holdup assay
Set-up: key: below the threshold = too weak to quantify, mostly under pKd 3.1 to 4
Conditions: plain residues with an end cap or a label only (N-terminal biotin on a linker: ado-ado)

Binder | pKd
HLRQQGSVEV [EPHB6, O15197] | below the threshold
FTLPAESSEI [PLEKHG7, Q6ZR37] | below the threshold

Target: MAGI2_2, Q86UL8
Sequence (Q86UL8 410-522): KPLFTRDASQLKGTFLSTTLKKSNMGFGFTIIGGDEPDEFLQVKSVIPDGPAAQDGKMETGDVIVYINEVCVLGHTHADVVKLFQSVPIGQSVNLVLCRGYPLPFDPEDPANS
Experiment: holdup assay
Set-up: key: below the threshold = too weak to quantify, mostly under pKd 3.1 to 4
Conditions: plain residues with an end cap or a label only (N-terminal biotin on a linker: ado-ado)

Binder | pKd
HLRQQGSVEV [EPHB6, O15197] | below the threshold
FTLPAESSEI [PLEKHG7, Q6ZR37] | below the threshold

Target: MAGI1_1, Q96QZ7
Sequence (Q96QZ7 1-106): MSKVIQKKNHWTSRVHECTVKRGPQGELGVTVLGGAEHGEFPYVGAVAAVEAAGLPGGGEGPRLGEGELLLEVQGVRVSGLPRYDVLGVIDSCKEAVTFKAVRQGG
Experiment: holdup assay
Set-up: key: below the threshold = too weak to quantify, mostly under pKd 3.1 to 4
Conditions: plain residues with an end cap or a label only (N-terminal biotin on a linker: ado-ado)

Binder | pKd
HLRQQGSVEV [EPHB6, O15197] | below the threshold
FTLPAESSEI [PLEKHG7, Q6ZR37] | below the threshold

Target: NOS1, P29475
Sequence (P29475 9-101): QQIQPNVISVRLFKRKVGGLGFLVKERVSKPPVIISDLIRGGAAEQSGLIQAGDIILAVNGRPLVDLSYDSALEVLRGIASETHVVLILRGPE
Experiment: holdup assay
Set-up: key: below the threshold = too weak to quantify, mostly under pKd 3.1 to 4
Conditions: plain residues with an end cap or a label only (N-terminal biotin on a linker: ado-ado)

Binder | pKd
HLRQQGSVEV [EPHB6, O15197] | 3.88
FTLPAESSEI [PLEKHG7, Q6ZR37] | below the threshold

Target: FRMPD2_3, Q68DX3
Sequence (Q68DX3 1073-1166): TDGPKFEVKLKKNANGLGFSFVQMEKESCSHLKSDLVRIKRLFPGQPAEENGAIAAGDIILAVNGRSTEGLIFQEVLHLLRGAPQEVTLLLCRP
Experiment: holdup assay
Set-up: key: below the threshold = too weak to quantify, mostly under pKd 3.1 to 4
Conditions: plain residues with an end cap or a label only (N-terminal biotin on a linker: ado-ado)

Binder | pKd
HLRQQGSVEV [EPHB6, O15197] | below the threshold
FTLPAESSEI [PLEKHG7, Q6ZR37] | below the threshold

Target: Inadl_10, Q8NI35
Sequence (Q8NI35 1673-1763): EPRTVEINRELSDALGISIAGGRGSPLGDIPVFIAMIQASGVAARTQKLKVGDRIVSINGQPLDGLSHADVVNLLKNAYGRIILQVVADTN
Experiment: holdup assay
Set-up: key: below the threshold = too weak to quantify, mostly under pKd 3.1 to 4
Conditions: plain residues with an end cap or a label only (N-terminal biotin on a linker: ado-ado)

Binder | pKd
HLRQQGSVEV [EPHB6, O15197] | below the threshold
FTLPAESSEI [PLEKHG7, Q6ZR37] | below the threshold

Target: FRMPD4, Q14CM0
Sequence (Q14CM0 67-160): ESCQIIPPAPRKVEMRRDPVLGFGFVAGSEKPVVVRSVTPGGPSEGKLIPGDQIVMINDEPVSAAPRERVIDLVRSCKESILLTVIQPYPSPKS
Experiment: holdup assay
Set-up: key: below the threshold = too weak to quantify, mostly under pKd 3.1 to 4
Conditions: plain residues with an end cap or a label only (N-terminal biotin on a linker: ado-ado)

Binder | pKd
HLRQQGSVEV [EPHB6, O15197] | below the threshold
FTLPAESSEI [PLEKHG7, Q6ZR37] | below the threshold

Target: GRIP2_5, Q9C0E4
Sequence (Q9C0E4 544-642): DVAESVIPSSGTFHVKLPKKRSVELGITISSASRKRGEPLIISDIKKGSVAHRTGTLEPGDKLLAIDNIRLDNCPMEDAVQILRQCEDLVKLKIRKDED
Experiment: holdup assay
Set-up: key: below the threshold = too weak to quantify, mostly under pKd 3.1 to 4
Conditions: plain residues with an end cap or a label only (N-terminal biotin on a linker: ado-ado)

Binder | pKd
HLRQQGSVEV [EPHB6, O15197] | below the threshold
FTLPAESSEI [PLEKHG7, Q6ZR37] | below the threshold

Target: T8, MPP7, Q5T2T1
Experiment: holdup assay
Set-up: key: below the threshold = too weak to quantify, mostly under pKd 3.1 to 4
Conditions: plain residues with an end cap or a label only (N-terminal biotin on a linker: ado-ado)

Binder | pKd
HLRQQGSVEV [EPHB6, O15197] | below the threshold
FTLPAESSEI [PLEKHG7, Q6ZR37] | below the threshold
